{"source": "paper PMC2199204", "about": "(The Journal of Cell Biology, 2001)", "binders": {"B1": {"name": "endogenous DGKζ (enzyme)", "chain": "not shown"}}, "molecular_target": "T1, endogenous RasGRP (human (endogenous in A172), UniProt O95267 1-797)", "T1 sequence (looked up)": "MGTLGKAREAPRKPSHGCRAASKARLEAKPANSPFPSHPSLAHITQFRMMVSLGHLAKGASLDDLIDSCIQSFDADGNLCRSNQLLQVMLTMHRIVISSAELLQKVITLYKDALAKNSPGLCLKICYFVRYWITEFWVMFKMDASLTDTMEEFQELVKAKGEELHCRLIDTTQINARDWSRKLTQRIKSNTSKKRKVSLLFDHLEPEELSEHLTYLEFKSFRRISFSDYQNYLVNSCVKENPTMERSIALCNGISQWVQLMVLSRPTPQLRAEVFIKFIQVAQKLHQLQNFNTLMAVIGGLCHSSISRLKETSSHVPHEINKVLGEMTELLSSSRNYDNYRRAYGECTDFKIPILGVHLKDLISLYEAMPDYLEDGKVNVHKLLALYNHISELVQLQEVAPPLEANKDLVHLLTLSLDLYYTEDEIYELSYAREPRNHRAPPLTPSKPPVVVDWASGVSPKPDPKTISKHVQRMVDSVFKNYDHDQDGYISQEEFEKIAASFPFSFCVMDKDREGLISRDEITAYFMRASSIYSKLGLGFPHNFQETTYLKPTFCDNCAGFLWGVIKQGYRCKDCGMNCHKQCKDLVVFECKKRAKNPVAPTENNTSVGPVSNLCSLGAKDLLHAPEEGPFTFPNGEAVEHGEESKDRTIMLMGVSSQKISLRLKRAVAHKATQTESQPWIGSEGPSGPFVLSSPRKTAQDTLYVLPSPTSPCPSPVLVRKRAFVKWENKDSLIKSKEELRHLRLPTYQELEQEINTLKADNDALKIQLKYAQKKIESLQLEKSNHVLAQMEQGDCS", "experiment": "co-IP"}
{"binder": "B1", "values": [{"measurement": "fold associated DGK activity, PMA-treated over untreated cells", "value": 1.9, "unit": "fold"}]}
